Assays:
[1] = system: HeLa Kyoto; experiment: solubility in G1/S (NP-40 vs SDS abundance) (log2 ratio); higher = more soluble; details: cell cycle stage: G1/S
[2] = system: HeLa Kyoto; experiment: melting temperature (median over replicates), in situ; higher = more thermally stable
[3] = system: HeLa Kyoto; experiment: solubility change mitosis vs G1/S (difference of NP-40 vs SDS log2 ratios) (log2 ratio difference); higher = more soluble in mitosis
[4] = system: HeLa Kyoto; experiment: thermal stability score vs G1/S (z-score of summed log2 fold changes over temperatures); higher = more thermally stable than in G1/S
[5] = cell cycle stage: early G1 (4.5 h after nocodazole release)
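Throughout, for melting temperature (median over replicates), in situ: HeLa Kyoto cells synchronized by double thymidine or nocodazole block, proteins quantified by TMT10plex mass spectrometry, three independent biological replicates.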
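Throughout, for solubility change mitosis vs G1/S (difference of NP-40 vs SDS log2 ratios): synchronized HeLa Kyoto cells (double thymidine block for G1/S, nocodazole release for mitosis), protein amounts in NP-40 versus SDS lysates quantified by mass spectrometry, three biological replicates.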
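Throughout, for solubility in G1/S (NP-40 vs SDS abundance): HeLa Kyoto cells arrested at G1/S by double thymidine block, proteins quantified by TMT10plex mass spectrometry in mild NP-40 versus SDS extracts, three biological replicates.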
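Throughout, for thermal stability score vs G1/S (z-score of summed log2 fold changes over temperatures): synchronized HeLa Kyoto cells, proteins quantified by TMT10plex mass spectrometry, three biological replicates, mitosis taken 0.5 h after nocodazole release, G1/S directly after double thymidine block.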

Sequence	solubility in G1/S (log2) [1]	melting temperature ([2]; cell cycle stage: G1/S) [°C]	melting temperature ([2]; cell cycle stage: mitosis) [°C]	solubility change mitosis (log2) [3]	thermal stability score [4, 5]	thermal stability score ([4]; cell cycle stage: mitosis)
MDNYADLSDTELTTLLRRYNIPHGPVVGSTRRLYEKKIFEYETQRRRLSPPSSSAASSYSFSDLNSTRGDADMYDLPKKEDALLYQSKGYNDDYYEESYFTTRTYGEPESAGPSRAVRQSVTSFPDADAFHHQVHDDDLLSSSEEECKDRERPMYGRDSAYQSITHYRPVSASRSSLDLSYYPTSSSTSFMSSSSSSSSWLTRRAIRPENRAPGAGLGQDRQVPLWGQLLLFLVFVIVLFFIYHFMQAEEGNPF [EMD]	-0.273	52.4	51.7	0.383	-0.609	-0.468
MDPLSELQDDLTLDDTSEALNQLKLASIDEKNWPSDEMPDFPKSDDSKSSSPELVTHLKWDDPYYDIARHQIVEVAGDDKYGRKIIVFSACRMPPSHQLDHSKLLGYLKHTLDQYVESDYTLLYLHHGLTSDNKPSLSWLRDAYREFDRKYKKNIKALYIVHPTMFIKTLLILFKPLISFKFGQKIFYVNYLSELSEHVKLEQLGIPRQVLKYDDFLKSTQKSPATAPKPMPPRPPLPNQQFGVSLQHLQEKNPEQEPIPIVLRETVAYLQAHALTTEGIFRRSANTQVVREVQQKYNMGLPVDFDQYNELHLPAVILKTFLRELPEPLLTFDLYPHVVGFLNIDESQRVPATLQVLQTLPEENYQVLRFLTAFLVQISAHSDQNKMTNTNLAVVFGPNLLWAKDAAITLKAINPINTFTKFLLDHQGELFPSPDPSGL [ARHGAP1]	0.473	51.4	51.4	-0.0609	0.517	0.431
MDPNTIIEALRGTMDPALREAAERQLNEAHKSLNFVSTLLQITMSEQLDLPVRQAGVIYLKNMITQYWPDRETAPGDISPYTIPEEDRHCIRENIVEAIIHSPELIRVQLTTCIHHIIKHDYPSRWTAIVDKIGFYLQSDNSACWLGILLCLYQLVKNYEYKKPEERSPLVAAMQHFLPVLKDRFIQLLSDQSDQSVLIQKQIFKIFYALVQYTLPLELINQQNLTEWIEILKTVVNRDVPNETLQVEEDDRPELPWWKCKKWALHILARLFERYGSPGNVSKEYNEFAEVFLKAFAVGVQQVLLKVLYQYKEKQYMAPRVLQQTLNYINQGVSHALTWKNLKPHIQGIIQDVIFPLMCYTDADEELWQEDPYEYIRMKFDVFEDFISPTTAAQTLLFTACSKRKEVLQKTMGFCYQILTEPNADPRKKDGALHMIGSLAEILLKKKIYKDQMEYMLQNHVFPLFSSELGYMRARACWVLHYFCEVKFKSDQNLQTALELTRRCLIDDREMPVKVEAAIALQVLISNQEKAKEYITPFIRPVMQALLHIIRETENDDLTNVIQKMICEYSEEVTPIAVEMTQHLAMTFNQVIQTGPDEEGSDDKAVTAMGILNTIDTLLSVVEDHKEITQQLEGICLQVIGTVLQQHVLEFYEEIFSLAHSLTCQQVSPQMWQLLPLVFEVFQQDGFDYFTDMMPLLHNYVTVDTDTLLSDTKYLEMIYSMCKKVLTGVAGEDAECHAAKLLEVIILQCKGRGIDQCIPLFVEAALERLTREVKTSELRTMCLQVAIAALYYNPHLLLNTLENLRFPNNVEPVTNHFITQWLNDVDCFLGLHDRKMCVLGLCALIDMEQIPQVLNQVSGQILPAFILLFNGLKRAYACHAEHENDSDDDDEAEDDDETEELGSDEDDIDEDGQEYLEILAKQAGEDGDDEDWEEDDAEETALEGYSTIIDDEDNPVDEYQIFKAIFQTIQNRNPVWYQALTHGLNEEQRKQLQDIATLADQRRAAHESKMIEKHGGYKFSAPVVPSSFNFGGPAPGMN [IPO7]	-0.0648	52.7	51.3	-0.133	1.18	3.75
MDREERKTINQGQEDEMEIYGYNLSRWKLAIVSLGVICSGGFLLLLLYWMPEWRVKATCVRAAIKDCEVVLLRTTDEFKMWFCAKIRVLSLETYPVSSPKSMSNKLSNGHAVCLIENPTEENRHRISKYSQTESQQIRYFTHHSVKYFWNDTIHNFDFLKGLDEGVSCTSIYEKHSAGLTKGMHAYRKLLYGVNEIAVKVPSVFKLLIKEVLNPFYIFQLFSVILWSTDEYYYYALAIVVMSIVSIVSSLYSIRKQYVMLHDMVATHSTVRVSVCRVNEEIEEIFSTDLVPGDVMVIPLNGTIMPCDAVLINGTCIVNESMLTGESVPVTKTNLPNPSVDVKGIGDELYNPETHKRHTLFCGTTVIQTRFYTGELVKAIVVRTGFSTSKGQLVRSILYPKPTDFKLYRDAYLFLLCLVAVAGIGFIYTIINSILNEVQVGVIIIESLDIITITVPPALPAAMTAGIVYAQRRLKKIGIFCISPQRINICGQLNLVCFDKTGTLTEDGLDLWGIQRVENARFLSPEENVCNEMLVKSQFVACMATCHSLTKIEGVLSGDPLDLKMFEAIGWILEEATEEETALHNRIMPTVVRPPKQLLPESTPAGNQEMELFELPATYEIGIVRQFPFSSALQRMSVVARVLGDRKMDAYMKGAPEAIAGLCKPETVPVDFQNVLEDFTKQGFRVIALAHRKLESKLTWHKVQNISRDAIENNMDFMGLIIMQNKLKQETPAVLEDLHKANIRTVMVTGDSMLTAVSVARDCGMILPQDKVIIAEALPPKDGKVAKINWHYADSLTQCSHPSAIDPEAIPVKLVHDSLEDLQMTRYHFAMNGKSFSVILEHFQDLVPKLMLHGTVFARMAPDQKTQLIEALQNVDYFVGMCGDGANDCGALKRAHGGISLSELEASVASPFTSKTPSISCVPNLIREGRAALITSFCVFKFMALYSIIQYFSVTLLYSILSNLGDFQFLFIDLAIILVVVFTMSLNPAWKELVAQRPPSGLISGALLFSVLSQIIICIGFQSLGFFWVKQQPWYEVWHPKSDACNTTGSGFWNSSHVDNETELDEHNIQNYENTTVFFISSFQYLIVAIAFSKGKPFRQPCYKNYFFVFSVIFLYIFILFIMLYPVASVDQVLQIVCVPYQWRVTMLIIVLVNAFVSITVEESVDRWGKCCLPWALGCRKKTPKAKYMYLAQELLVDPEWPPKPQTTTEAKALVKENGSCQIITIT [ATP13A3]	-0.205	54.3	53.9	-0.0406	-0.654	-0.884
MDRFVWTSGLLEINETLVIQQRGVRIYDGEEKIKFDAGTLLLSTHRLIWRDQKNHECCMAILLSQIVFIEEQAAGIGKSAKIVVHLHPAPPNKEPGPFQSSKNSYIKLSFKEHGQIEFYRRLSEEMTQRRWENMPVSQSLQTNRGPQPGRIRAVGIVGIERKLEEKRKETDKNISEAFEDLSKLMIKAKEMVELSKSIANKIKDKQGDITEDETIRFKSYLLSMGIANPVTRETYGSGTQYHMQLAKQLAGILQVPLEERGGIMSLTEVYCLVNRARGMELLSPEDLVNACKMLEALKLPLRLRVFDSGVMVIELQSHKEEEMVASALETVSEKGSLTSEEFAKLVGMSVLLAKERLLLAEKMGHLCRDDSVEGLRFYPNLFMTQS [VPS36]	-0.823	51.6	51	-0.0782	1.41	2.15
MDRMTEDALRLNLLKRSLDPADERDDVLAKRLKMEGHEAMERLKMLALLKRKDLANLEVPHELPTKQDGSGVKGYEEKLNGNLRPHGDNRTAGRPGKENINDEPVDMSARRSEPERGRLTPSPDIIVLSDNEASSPRSSSRMEERLKAANLEMFKGKGIEERQQLIKQLRDELRLEEARLVLLKKLRQSQLQKENVVQKTPVVQNAASIVQPSPAHVGQQGLSKLPSRPGAQGVEPQNLRTLQGHSVIRSATNTTLPHMLMSQRVIAPNPAQLQGQRGPPKPGLVRTTTPNMNPAINYQPQSSSSVPCQRTTSSAIYMNLASHIQPGTVNRVSSPLPSPSAMTDAANSQAAAKLALRKQLEKTLLEIPPPKPPAPLLHFLPSAANSEFIYMVGLEEVVQSVIDSQGKSCASLLRVEPFVCAQCRTDFTPHWKQEKNGKILCEQCMTSNQKKALKAEHTNRLKNAFVKALQQEQEIEQRLQQQAALSPTTAPAVSSVSKQETIMRHHTLRQAPQPQSSLQRGIPTSARSMLSNFAQAPQLSVPGGLLGMPGVNIAYLNTGIGGHKGPSLADRQREYLLDMIPPRSISQSISGQK [GATAD2B]	0.413	49	50.6	0.158	1.06	3.82
MDRSGFGEISSPVIREAEVTRTARKQSAQKRVLLQASQDENFGNTTPRNQVIPRTPSSFRQPFTPTSRSLLRQPDISCILGTGGKSPRLTQSSGFFGNLSMVTNLDDSNWAAAFSSQRSGLFTNTEPHSITEDVTISAVMLREDDPGEAASMSMFSDFLQSFLKHSSSTVFDLVEEYENICGSQVNILSKIVSRATPGLQKFSKTASMLWLLQQEMVTWRLLASLYRDRIQSALEEESVFAVTAVNASEKTVVEALFQRDSLVRQSQLVVDWLESIAKDEIGEFSDNIEFYAKSVYWENTLHTLKQRQLTSYVGSVRPLVTELDPDAPIRQKMPLDDLDREDEVRLLKYLFTLIRAGMTEEAQRLCKRCGQAWRAATLEGWKLYHDPNVNGGTELEPVEGNPYRRIWKISCWRMAEDELFNRYERAIYAALSGNLKQLLPVCDTWEDTVWAYFRVMVDSLVEQEIQTSVATLDETEELPREYLGANWTLEKVFEELQATDKKRVLEENQEHYHIVQKFLILGDIDGLMDEFSKWLSKSRNNLPGHLLRFMTHLILFFRTLGLQTKEEVSIEVLKTYIQLLIREKHTNLIAFYTCHLPQDLAVAQYALFLESVTEFEQRHHCLELAKEADLDVATITKTVVENIRKKDNGEFSHHDLAPALDTGTTEEDRLKIDVIDWLVFDPAQRAEALKQGNAIMRKFLASKKHEAAKEVFVKIPQDSIAEIYNQCEEQGMESPLPAEDDNAIREHLCIRAYLEAHETFNEWFKHMNSVPQKPALIPQPTFTEKVAHEHKEKKYEMDFGIWKGHLDALTADVKEKMYNVLLFVDGGWMVDVREDAKEDHERTHQMVLLRKLCLPMLCFLLHTILHSTGQYQECLQLADMVSSERHKLYLVFSKEELRKLLQKLRESSLMLLDQGLDPLGYEIQL [NUP107]	-0.526	51.1	49.3	0.428	-2.75	-3.13
MDSALSDPHNGSAEAGGPTNSTTRPPSTPEGIALAYGSLLLMALLPIFFGALRSVRCARGKNASDMPETITSRDAARFPIIASCTLLGLYLFFKIFSQEYINLLLSMYFFVLGILALSHTISPFMNKFFPASFPNRQYQLLFTQGSGENKEEIINYEFDTKDLVCLGLSSIVGVWYLLRKHWIANNLFGLAFSLNGVELLHLNNVSTGCILLGGLFIYDVFWVFGTNVMVTVAKSFEAPIKLVFPQDLLEKGLEANNFAMLGLGDVVIPGIFIALLLRFDISLKKNTHTYFYTSFAAYIFGLGLTIFIMHIFKHAQPALLYLVPACIGFPVLVALAKGEVTEMFSYEESNPKDPAAVTESKEGTEASASKGLEKKEK [HM13]	-0.106	60.5	59.8	-0.167	-1.07	-1.15
MDSGSSSSDSAPDCWDQVDMESPGSAPSGDGVSSAVAEAQREPLSSAFSRKLNVNAKPFVPNVHAAEFVPSFLRGPTQPPTLPAGSGSNDETCTGAGYPQGKRMGRGAPVEPSREEPLVSLEGSNSAVTMELSEPVVENGEVEMALEESWEHSKEVSEAEPGGGSSGDSGPPEESGQEMMEEKEEIRKSKSVIVPSGAPKKEHVNVVFIGHVDAGKSTIGGQIMFLTGMVDKRTLEKYEREAKEKNRETWYLSWALDTNQEERDKGKTVEVGRAYFETERKHFTILDAPGHKSFVPNMIGGASQADLAVLVISARKGEFETGFEKGGQTREHAMLAKTAGVKHLIVLINKMDDPTVNWSIERYEECKEKLVPFLKKVGFSPKKDIHFMPCSGLTGANIKEQSDFCPWYTGLPFIPYLDNLPNFNRSIDGPIRLPIVDKYKDMGTVVLGKLESGSIFKGQQLVMMPNKHNVEVLGILSDDTETDFVAPGENLKIRLKGIEEEEILPGFILCDPSNLCHSGRTFDVQIVIIEHKSIICPGYNAVLHIHTCIEEVEITALISLVDKKSGEKSKTRPRFVKQDQVCIARLRTAGTICLETFKDFPQMGRFTLRDEGKTIAIGKVLKLVPEKD [GSPT2]	0.153		53.5	-0.124	-1.05	-1.43

From the supplement of paper PMC5998384
